Key:
murine platelets = assay: Ex vivo aggregation of murine platelets; assay type: in vivo, C57BL/6J mice; conditions: PRP 1 hour after soluble CD39 4 mg/kg or aspirin 5 mg/kg
Procedure: C57BL/6J mice (6-8 wk) were obtained from Jackson Laboratories (Bar Harbor, Me.). […] 80 μL of 3.8% trisodium citrate was added to each mL of blood. […] The PRP contained 400-700×10^3 platelets per μL. All experiments were completed within 2 hours of blood collection. PRP (200 μL) was preincubated, for 3 min. at 37° C., with 100 μL Tris-buffered saline buffer ([…], 5 mM glucose, pH 7.4) in an aggregometer cuvette (Lumiaggregometer; Chrono-Log, Havertown, Pa.), and the platelet agonists ADP, collagen, or sodium arachidonate were added at the final concentrations indicated.

[1] = Murine model of stroke (middle cerebral artery occlusion); assay type: in vivo, mice
Procedure: Anesthetized mice were maintained at 37±2° C. during and for 90 min following surgery. A midline neck incision was made and the right carotid artery exposed. Middle cerebral artery occlusion was accomplished by advancing a 13-mm heat-blunt tipped 6-0 nylon suture via an arteriotomy in the external carotid stump. The external carotid artery was cauterized to secure hemostasis, and arterial flow reestablished. […] Surgical staples were used for wound closure. […]

platelets [2] = assay: Platelet aggregation in human platelet-rich plasma; assay type: cell-based
Procedure: After obtaining informed consent from volunteers, blood was collected via plastic tubing using acid citrate-dextrose (38 mM citric acid; 75 mM sodium citrate; 135 mM glucose) as anticoagulant. Where indicated, volunteers had ingested 650 mg acetylsalicylic acid (ASA) 18 h prior to blood donation. […] The stock suspension of PRP was maintained at room temperature under 5% CO2-air. […] Total volumes were adjusted to 300 μl with TSG buffer (Marcus et al., J. Clin. Invest. 88:1690, 1991; Marcus et al., J. Clin. Invest. 99:1351, 1997). […] A mock-treated sample was also prepared in which the FSBA solution was replaced with water. After incubating at 37° for 90 min., the samples were centrifuged in a Centricon-10 filter unit (Amicon Corp.) for 1 hour at 5,500 rpm and buffer exchanged into PBS to remove unreacted material.

[3] = Phosphate release assay for ATPase activity; assay type: biochemical; conditions: for ATPase activity, CPM × 10^3 (net counts): Table 3, 5-day 1× COS-1 sups; for ATPase activity, CPM Release × 10^3 (net counts): unconcentrated COS-1 CM
Procedure: This example describes an ATPase assay that may be used to track enzyme activity. Samples (approximately 100 μl of either concentrated CM or purified polypeptide) are combined with 20 μl of 10× assay buffer (200 mM HEPES, 1.2 M NaCl, 50 mM KCl, 15 mM CaCl2, 15 mM MgCl2 and 3 mM ATP) and sterile water is added to a final volume of 200 μl. Radiolabeled ATP (0.8 μCi γ [^32P] ATP; Amersham, Arlington Heights, Ill.) is added and the mixture incubated for 20 minutes at 37° C. […] After centrifugation (14K rpm for 10 minutes), the supernatant is assayed for free ^32P using a scintillation counter. Data are expressed as raw counts or net counts, or as picomoles of ATP degraded per minute. […] The transfections were repeated and the CM (10, 20 and 30 μL, unconcentrated) was assayed essentially as described in Example 7. […] ATPase levels in CM from COS-1 cells transfected with pIL2LFlagSolCD39 increased with time in culture over at least 4 days post-transfection. To determine whether activity was affected by removal of the N-terminal FLAG® tag, COS-1 cells were transfected with pIL2LFlagSolCD39 and pIL2LSolCD39 and supernatants (sups) were harvested after 5 days. Samples of 10, 20 and 30 μL of 1× sups were assayed for ATPase activity as described in Example 7. […] The expression of Trim1 and Trim2 constructs was analyzed in COS-1 cells cultured in 10 cm plates. After 5 days of incubation, 1× supernatants were examined via ELISA (using anti-CD39) and the phosphate-release assay described in Example 7. […] Expression levels, however, appeared to be reduced 3-4 fold.

[4] = Phosphate release assay for ATPase activity; assay type: biochemical; conditions: 100 μL of 10-fold concentrated CM from COS-1 transfectants; 10× buffer with 30 mM cold ATP
[5] = Enzymatic (ATPase and ADPase) activity of site-directed mutants; assay type: biochemical
Procedure: Mutants were assayed for enzymatic (ATPase and ADPase) and platelet inhibitory (dose-dependent inhibition of platelet aggregation) activities. For one series of mutants, residues within the conserved apyrase regions were replaced with alanine.

platelets [6] = assay: Ex vivo additive inhibition of platelet aggregation in patient platelet rich plasma; assay type: cell-based, human; conditions: patient PRP, no SolCD39

CC(=O)Oc1ccccc1C(=O)O [Aspirin, acetylsalicylic acid, reference compound]
ex vivo platelet aggregation, collagen (murine platelets; 2.5 μg/ml collagen): strongly aggregated | ex vivo platelet aggregation, ADP (murine platelets; 10 μM ADP): strongly aggregated | ex vivo platelet aggregation, arachidonate (murine platelets; 0.1 mM sodium arachidonate): blocked | postischemic cerebral perfusion / blood flow ([1]; 24 hours after stroke induction): no improvement | intracerebral hemorrhage ([1]; following stroke, spectrophotometric): increased | cerebral infarct volume ([1]; preoperative administration, aspirin 5 mg/kg): not statistically significant

COc1ccc2c(c1)c(CC(=O)O)c(C)n2C(=O)c1ccc(Cl)cc1 [indomethacin, reference compound]
platelet responsiveness to 5 μM ADP (platelets [2]; PRP with or without 10 μM indomethacin, CM containing solCD39 from COS-1 and CHO cells): partial reversal

B1: pIL2LFlagSolCD39: N-terminally FLAG-tagged solCD39 with human proinsulin/IL2 leader and 12 mature IL2 residues (SEQ ID NO:25) (protein)
chain: MALWIDRMQLLSCIALSLALVTNSAPTSSSTKKTQLTSSGDYKDDDDKTQNKALPENVKYGIVLDAGSSHTSLYIYKWPAEKENDTGVVHQVEECRVKGPGISKFVQKVNEIGIYLTDCMERAREVIPRSQHQETPVYLGATAGMRLLRMESEELADRVLDVVERSLSNYPFDFQGARIITGQEEGAYGWITINYLLGKFSQKTRWFSIVPYETNNQETFGALDLGGASTQVTFVPQNQTIESPDNALQFRLYGKDYNVYTHSFLCYGKDQALWQKLAKDIQVASNEILRDPCFHPGYKKVVNVSDLYKTPCTKRFEMTLPFQQFEIQGIGNYQQCHQSILELFNTSYCPYSQCAFNGIFLPPLQGDFGAFSAFYFVMKFLNLTSEKVSQEKVTEMMKKFCAQPWEEIKTSYAGVKEKYLSEYCFSGTYILSLLLQGYHFTADSWEHIHFIGKIQGSDAGWTLGYMLNLTNMIPAEQPLSTPLSHST
modifications: CDS (1)..(1461)
ATPase activity, CPM × 10^3 (net counts) ([3]; 10 μL): 23.6 CPM × 10^3 | ATPase activity, CPM × 10^3 (net counts) ([3]; 20 μL): 40.2 CPM × 10^3 | ATPase activity, CPM × 10^3 (net counts) ([3]; 30 μL): 54.4 CPM × 10^3 | ATPase activity, CPM Release × 10^3 (net counts) ([3]; 10 μL): 24.71 CPM × 10^3 | ATPase activity, CPM Release × 10^3 (net counts) ([3]; 20 μL): 43.92 CPM × 10^3 | ATPase activity, CPM Release × 10^3 (net counts) ([3]; 30 μL): 56.93 CPM × 10^3 | ATPase activity, CPM Release × 10^3 (raw counts) [4]: 99.96 CPM × 10^3

B2: E174A: CD39 mutant, Glutamate174 replaced with alanine (protein, UniProt P49961 1-510, looked up, variant E174A)
Ectonucleoside triphosphate …: MEDTKESNVKTFCSKNILAILGFSSIIAVIALLAVGLTQNKALPENVKYGIVLDAGSSHTSLYIYKWPAEKENDTGVVHQVEECRVKGPGISKFVQKVNEIGIYLTDCMERAREVIPRSQHQETPVYLGATAGMRLLRMESEELADRVLDVVERSLSNYPFDFQGARIITGQEAGAYGWITINYLLGKFSQKTRWFSIVPYETNNQETFGALDLGGASTQVTFVPQNQTIESPDNALQFRLYGKDYNVYTHSFLCYGKDQALWQKLAKDIQVASNEILRDPCFHPGYKKVVNVSDLYKTPCTKRFEMTLPFQQFEIQGIGNYQQCHQSILELFNTSYCPYSQCAFNGIFLPPLQGDFGAFSAFYFVMKFLNLTSEKVSQEKVTEMMKKFCAQPWEEIKTSYAGVKEKYLSEYCFSGTYILSLLLQGYHFTADSWEHIHFIGKIQGSDAGWTLGYMLNLTNMIPAEQPLSTPLSHSTYVFLMVLFSLVLFTVAIIGLLIFHKPSYFWKDMV
effect on platelet responsiveness (platelets [2]; mutant): no effect | enzymatic activity of mutant ([5]; alanine replacement in conserved apyrase region): completely devoid

B3: S218A: CD39 mutant, Serine218 replaced with alanine (protein, UniProt P49961 1-510, looked up, variant S218A)
Ectonucleoside triphosphate …: MEDTKESNVKTFCSKNILAILGFSSIIAVIALLAVGLTQNKALPENVKYGIVLDAGSSHTSLYIYKWPAEKENDTGVVHQVEECRVKGPGISKFVQKVNEIGIYLTDCMERAREVIPRSQHQETPVYLGATAGMRLLRMESEELADRVLDVVERSLSNYPFDFQGARIITGQEEGAYGWITINYLLGKFSQKTRWFSIVPYETNNQETFGALDLGGAATQVTFVPQNQTIESPDNALQFRLYGKDYNVYTHSFLCYGKDQALWQKLAKDIQVASNEILRDPCFHPGYKKVVNVSDLYKTPCTKRFEMTLPFQQFEIQGIGNYQQCHQSILELFNTSYCPYSQCAFNGIFLPPLQGDFGAFSAFYFVMKFLNLTSEKVSQEKVTEMMKKFCAQPWEEIKTSYAGVKEKYLSEYCFSGTYILSLLLQGYHFTADSWEHIHFIGKIQGSDAGWTLGYMLNLTNMIPAEQPLSTPLSHSTYVFLMVLFSLVLFTVAIIGLLIFHKPSYFWKDMV
ADPase activity retained ([5]; mutant): less than 10%

B4: pIL2LTrim1: huIL2 leader joined to solCD39 with an intervening alanine residue (SEQ ID NO:27) (protein)
chain: MALWIDRMQLLSCIALSLALVTNSATQNKALPENVKYGIVLDAGSSHTSLYIYKWPAEKENDTGVVHQVEECRVKGPGISKFVQKVNEIGIYLTDCMERAREVIPRSQHQETPVYLGATAGMRLLRMESEELADRVLDVVERSLSNYPFDFQGARIITGQEEGAYGWITINYLLGKFSQKTRWFSIVPYETNNQETFGALDLGGASTQVTFVPQNQTIESPDNALQFRLYGKDYNVYTHSFLCYGKDQALWQKLAKDIQVASNEILRDPCFHPGYKKVVNVSDLYKTPCTKRFEMTLPFQQFEIQGIGNYQQCHQSILELFNTSYCPYSQCAFNGIFLPPLQGDFGAFSAFYFVMKFLNLTSEKVSQEKVTEMMKKFCAQPWEEIKTSYAGVKEKYLSEYCFSGTYILSLLLQGYHFTADSWEHIHFIGKIQGSDAGWTLGYMLNLTNMIPAEQPLSTPLSHST
Activity (pmol ATP/min/μg) × 10^3 ([3]; specific activity in COS-1 CM, concentration by ELISA): 8.38 (pmol ATP/min/μg) × 10^3

B5: Abciximab: platelet-specific chimeric antibody, glycoprotein IIb/IIIa antagonist, trade name ReoPro (antibody, chains of the INN, looked up, V domains shown)
VH: EVQLQQSGTVLARPGASVKMSCEASGYTFTNYWMHWVKQRPGQGLEWIGAIYPGNSDTSYIQKFKGKAKLTAVTSTTSVYMELSSLTNEDSAVYYCTLYDGYYVFAYWGQGTLVTVSA
VL: EIVLTQSPVTLSVTPGDSVSLSCRASRDISNNLHWFQQTSHESPRLLIKYASQSMSGIPSRFSGSGSGTDFTLSINSVETEDFGMYFCQQTNSWPYTFGGGTKLEIK
modifications: Fab
notes: platelet-specific chimeric antibody, glycoprotein IIb/IIIa antagonist, trade name ReoPro
Platelet aggregation, baseline (platelets [6]; ADP, clopidogrel, ticlopidine, abciximab groups also received aspirin): 0 ± 0 arbitrary units | Platelet aggregation, baseline (platelets [6]; Collagen): 0 ± 0 arbitrary units | Platelet aggregation, baseline (platelets [6]; TRAP): 46 ± 6 arbitrary units

Reference: patent US7264809B1, “Methods of inhibiting platelet activation and recruitment” (Immunex Corporation, priority 1998, dated 2007)
